# B1: Outer-membrane lipoprotein carrier protein (Escherichia coli (strain K12)), P61316 (parent)
# chain: MKKIAITCALLSSLVASSVWADAASDLKSRLDKVSSFHASFTQKVTDGSGAAVQEGQGDLWVKRPNLFNWHMTQPDESILVSDGKTLWFYNPFVEQATATWLKDATGNTPFMLIARNQSSDWQQYNIKQNGDDFVLTPKASNGNLKQFTINVGRDGTIHQFSAVEQDDQRSSYQLKSQQNGAVDAAKFTFTPPQGVTVDDQRK
# partner: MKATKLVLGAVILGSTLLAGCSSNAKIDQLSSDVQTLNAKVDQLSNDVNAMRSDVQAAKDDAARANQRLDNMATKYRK
# Variants of: B1
# Conditions: with lpp_ecoli lpp
row,Variant,effect of a mutation on the interaction
1,MKKIAITCALLSSLVASSVWADAASDLKSRLDKVSSFHASFTQKVTDGSGAAVQEGQGDLWVKRPNLFNWHMTQPDESILVSDGKTLWFYNPFVEQATATWLKDATGNTPFMLGARNQSSDWQQYNIKQNGDDFVLTPKASNGNLKQFTINVGRDGTIHQFSAVEQDDQRSSYQLKSQQNGAVDAAKFTFTPPQGVTVDDQRK [I114G],increasing interaction

# From IntAct's records for PubMed 16354671
